According to patent US20230136252A1 (NANJING LEGEND BIOTECH, published 2023):

Columns and labels:
[1] = biological target: T1, recombinant human GPC4-Fc (human, UniProt O75487 19-529, limits assumed); test: ELISA on GPC4 coated plate; by paragraph 266 the VHH-His form with anti-His tag secondary was used on GPC4-Fc; the sheet's title prints the hIgG1Fc form and its legend 'rhGPC4-his'
T1 construct: Bought protein; also called RD System Cat #9195-GP; not shown: Fc
T1 sequence (looked up): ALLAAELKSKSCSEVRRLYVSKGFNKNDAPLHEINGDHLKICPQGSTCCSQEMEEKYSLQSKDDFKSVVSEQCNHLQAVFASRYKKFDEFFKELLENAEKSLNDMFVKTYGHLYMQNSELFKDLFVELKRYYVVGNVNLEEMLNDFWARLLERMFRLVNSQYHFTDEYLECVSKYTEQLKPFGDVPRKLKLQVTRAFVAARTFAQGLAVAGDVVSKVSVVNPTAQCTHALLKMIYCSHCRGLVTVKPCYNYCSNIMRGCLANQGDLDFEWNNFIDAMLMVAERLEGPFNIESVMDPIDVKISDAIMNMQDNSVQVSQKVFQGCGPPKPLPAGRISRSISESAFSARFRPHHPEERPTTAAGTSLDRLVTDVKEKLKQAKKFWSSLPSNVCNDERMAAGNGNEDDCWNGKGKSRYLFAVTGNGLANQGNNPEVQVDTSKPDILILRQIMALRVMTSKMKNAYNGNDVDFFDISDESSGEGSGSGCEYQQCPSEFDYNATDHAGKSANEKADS
Experimental: To evaluate the specificity of humanized anti-GPC2 VHH5 to recombinant human GPC2 protein, an ELISA-based binding assay was conducted to determine the differential target proteins binding of anti-GPC2 VHH5. Briefly, microplates were coated with 2 μg/mL recombinant human GPC1-His (RD System, Cat #4519-GP), GPC2-His (RD System, Cat #2304-GP), GPC3-His (ACRO, Cat #GP3-H5223), GPC4-Fc (RD System, Cat #9195-GP), GPC5-His (RD System, Cat #2607-G5/CF), GPC6-His (RD System, Cat #2845-GP) or recombinant mouse GPC2-His (RD System, Cat #2355-GP) proteins. Recombinant human protein coated plates were blocked with skim milk. Serially diluted humanized VHH-hIgG1Fc recombinant antibodies were added to each well of the plates and incubated at 4° C. for 1.5 h. Samples were further labelled with HRP-conjugated goat anti human IgG (H+L) secondary antibody (Genescript, Cat #A00166-1) and signal was developed with 3,3′,5,5′-Tetramethylbenzidine (TMB) substrate according to manufacturer's instruction. For the GPC4, VHH-His recombinant antibodies and anti-His tag secondary antibody (Genescript, Cat #A00612) were added to the GPC4-Fc coated plates instead. Optic density at 450 nm was measured by plate reader.

[2] = biological target: T2, cynomolgus monkey GPC2 on cells (HEK293T/cynoGPC2) (Cynomolgus monkey (Macaca fascicularis), UniProt A0A2K5X5G1 24-551); test: flow cytometry on HEK293T/cynoGPC2 cells, VHH-His detected with anti-His tag antibody (iFluor 647), median fluorescence intensity, four-parameter fit
T2 construct: whole, on cells; also called Cynomolgus monkey (Macaca fascicularis) GPC2
T2 sequence: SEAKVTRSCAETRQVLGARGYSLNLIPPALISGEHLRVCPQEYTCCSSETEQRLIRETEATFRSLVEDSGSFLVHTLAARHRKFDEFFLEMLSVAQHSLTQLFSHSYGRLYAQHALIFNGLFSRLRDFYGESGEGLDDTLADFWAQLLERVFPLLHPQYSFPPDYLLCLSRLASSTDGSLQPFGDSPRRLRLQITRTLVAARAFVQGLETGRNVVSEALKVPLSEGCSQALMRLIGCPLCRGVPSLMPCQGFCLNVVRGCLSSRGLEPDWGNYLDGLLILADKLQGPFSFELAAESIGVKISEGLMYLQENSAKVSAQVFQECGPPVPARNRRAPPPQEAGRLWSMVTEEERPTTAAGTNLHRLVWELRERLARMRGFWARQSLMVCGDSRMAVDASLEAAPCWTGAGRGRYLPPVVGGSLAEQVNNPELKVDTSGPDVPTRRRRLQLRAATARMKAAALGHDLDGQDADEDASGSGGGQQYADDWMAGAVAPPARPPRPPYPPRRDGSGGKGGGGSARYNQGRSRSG
Experimental: (§1) Binding affinities of humanized VHH proteins AS70950VH6, AS71529VH6, AS72669VH6 and AS71529VH6-AS70950VH6 anti-GPC2 VHH-HIS proteins to human GPC2 expressing cells (SH-SY5Y and HEK293T/hGPC2) and cynomolgus monkey GPC2 expressing cell (HEK293T/cynoGPC2) were determined using flow cytometry. Briefly, serially diluted anti-GPC2 VHH-HIS proteins were incubated with 2×10⁵ target cells at 4° C. for 30 mins. After washing, cells were further labelled with THE™ His tag Antibody (iFluor 647) (Genescript, #A01802) at 4° C. for 30 mins. Fluorescence intensity was measured by flow cytometry. A four parameters variable slope curve was fitted to each group using GraphPad Prism for Windows Version 6.02. As shown in FIG. 4A-FIG. 4C, exemplary AS70950VH6, AS71529VH6, AS72669VH6 and AS71529VH6-AS70950VH6 specifically bind to SH-SY5Y, HEK293T/hGPC2 and HEK293T/cynoGPC2 in a dose-dependent manner.

[3] = biological target: T3, human GPC2 on cells (SH-SY5Y, IMR-32, HEK293T/hGPC2) (human, UniProt Q8N158 24-554); test: flow cytometry on SH-SY5Y cells, VHH-His detected with anti-His tag antibody (iFluor 647), median fluorescence intensity, four-parameter fit
T3 construct: whole, on cells; GPI-anchored proteoglycan on the cell surface; also called cell-surface human GPC2; GPC2 positive cells
T3 sequence (looked up): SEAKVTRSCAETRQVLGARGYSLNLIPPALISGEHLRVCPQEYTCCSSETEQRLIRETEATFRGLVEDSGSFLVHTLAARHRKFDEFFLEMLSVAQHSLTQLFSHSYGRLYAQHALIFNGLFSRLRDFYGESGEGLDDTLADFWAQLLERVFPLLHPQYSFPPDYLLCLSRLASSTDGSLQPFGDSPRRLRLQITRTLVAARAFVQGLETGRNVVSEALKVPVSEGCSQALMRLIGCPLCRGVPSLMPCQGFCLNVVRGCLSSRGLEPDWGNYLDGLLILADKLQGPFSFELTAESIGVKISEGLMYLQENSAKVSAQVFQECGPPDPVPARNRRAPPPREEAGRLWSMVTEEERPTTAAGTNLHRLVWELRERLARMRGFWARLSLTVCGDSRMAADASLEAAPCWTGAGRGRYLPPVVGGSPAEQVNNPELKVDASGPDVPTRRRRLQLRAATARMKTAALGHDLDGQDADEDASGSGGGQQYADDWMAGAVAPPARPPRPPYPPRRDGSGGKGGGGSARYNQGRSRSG
Experimental: as §1

[4] = biological target: T3, human GPC2 on cells (SH-SY5Y, IMR-32, …); test: flow cytometry on HEK293T/hGPC2 cells, VHH-His detected with anti-His tag antibody (iFluor 647), median fluorescence intensity, four-parameter fit
Experimental: as §1

[5] = biological target: T4, recombinant human GPC2-His protein (human, UniProt Q8N158 24-554, limits assumed); test: SPR, Biacore T200, GPC2-His amine-coupled to CM5 chip, VHH-hIgG1Fc as analyte, 1:1 model
T4 construct: Bought protein; The SPR paragraph gives no catalogue number for GPC2-His; also called recombinant Human Glypican 2 Protein; recombinant human GPC2 protein; not shown: His tag
T4 sequence (looked up): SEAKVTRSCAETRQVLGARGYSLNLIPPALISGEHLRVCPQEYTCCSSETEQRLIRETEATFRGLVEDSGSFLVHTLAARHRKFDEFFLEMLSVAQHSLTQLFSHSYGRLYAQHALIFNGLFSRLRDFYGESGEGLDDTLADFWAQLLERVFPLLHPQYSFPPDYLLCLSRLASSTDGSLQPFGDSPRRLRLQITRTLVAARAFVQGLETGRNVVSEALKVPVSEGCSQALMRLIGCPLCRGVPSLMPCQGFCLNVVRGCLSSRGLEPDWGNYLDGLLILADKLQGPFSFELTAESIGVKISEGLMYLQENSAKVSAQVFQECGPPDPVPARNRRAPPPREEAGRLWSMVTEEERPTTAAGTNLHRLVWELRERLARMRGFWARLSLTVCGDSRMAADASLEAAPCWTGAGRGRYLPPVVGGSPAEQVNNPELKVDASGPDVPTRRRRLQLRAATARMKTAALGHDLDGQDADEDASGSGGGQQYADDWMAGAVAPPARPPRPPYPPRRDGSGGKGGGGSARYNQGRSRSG
Experimental: Each of the exemplary anti-GPC2 VHH sequences was cloned into a vector comprising a human IgG1Fc fragment (hlgG1Fc) sequence to facilitate recombinant expression of anti-GPC2 VHH-hlgG1Fc. Recombinant proteins were obtained and purified for SPR assays. The affinity of each anti-GPC2 VHH-hIgG1Fc for GPC2 was determined by SPR using a BIACORE® T200 analytical system (GE Healthcare). Briefly, recombinant human GPC2-His protein was covalently coupled to a CM5(s) sensor chip using an amine coupling kit. Exemplary VHH-hIgG1Fc proteins were serially diluted in running buffer (10 mM HEPES, 150 mM NaCl, 3 mM EDTA, 0.05% Tween-20, pH 7.4) and injected over the chip cell at a flowrate of 100 μL/min for 100 seconds followed by buffer-only injection for 300 seconds to allow for antibody dissociation. The dissociation […] (KD) were determined using the BIACORE® T200 evaluation software version 3.0 (Langmuir binding, local fit, 1:1 binding model).

Binder	binding result [1]	EC50 (read off the curve) [2]	EC50 (read off the curve) [3]	EC50 (read off the curve) [4]	Kd [5]	koff [5]	kon [5]
AS78117VH4 VHH-His recombinant antibody (VHH, the result sentence still names the hIgG1Fc form) VHH: EVQLVESGGGLVQPGGSLRLSCIVSRYTYATYSMAWFRQAPGKGLEGVSGLDSVGATGYAESVKGRFTISRDNSKNTLYLQMNSLRAEDTAVYYCVVDPASAKVTYGSWSTPSYAYWGQGTLVTVSS	no binding (tested: about 300 nM)						
AS71529VH6-AS70950VH6 anti-GPC2 VHH-His protein (VHH, Tandem of two different anti-GPC2 VHH domains) EVQLVESGGGLVQPGGSLRLSCAVSEYRYSSRYCMGWFRQAPGKGREGVAAIDSNGSADYVDSVKGRFTISKDNSKNTLYLQMNSLRAEDTAMYYCAADHLAYDCYSGATSVFRYWGQGTLVTVSSGGGGSGGGGSGGGGSEVQLVESGGGLVQPGGSLRLSCAISEFTYKNTCVGWFRQAPGKGREGVAAIDSDGNTNYVDSVKGRFTISQDNSKNTVYLQMNSLRAEDTAMYYCAAGAYCGRLLLWIGNYAYWGQGTLVTVSSHHHHHH		~5 nM	~3 nM	~5 nM			
AS71529VH6 anti-GPC2 VHH-His protein (VHH) VHH: EVQLVESGGGLVQPGGSLRLSCAVSEYRYSSRYCMGWFRQAPGKGREGVAAIDSNGSADYVDSVKGRFTISKDNSKNTLYLQMNSLRAEDTAMYYCAADHLAYDCYSGATSVFRYWGQGTLVTVSS			~100 nM				
AS71529VH6-hIgG1Fc (Fc fusion, also called anti-GPC2 VHH-hIgG1Fc; not shown: human IgG1 Fc fragment (hIgG1Fc)) EVQLVESGGGLVQPGGSLRLSCAVSEYRYSSRYCMGWFRQAPGKGREGVAAIDSNGSADYVDSVKGRFTISKDNSKNTLYLQMNSLRAEDTAMYYCAADHLAYDCYSGATSVFRYWGQGTLVTVSS					5.1 nM	0.0044 s⁻¹	850000 M⁻¹ s⁻¹
AS71529VH6-AS70950VH6-hIgG1Fc (Fc fusion, Two different anti-GPC2 VHH domains in tandem, fused to a human IgG1Fc fragment; also called tandem anti-GPC2 VHH-hIgG1Fc; not shown: human IgG1 Fc fragment (hIgG1Fc)) EVQLVESGGGLVQPGGSLRLSCAVSEYRYSSRYCMGWFRQAPGKGREGVAAIDSNGSADYVDSVKGRFTISKDNSKNTLYLQMNSLRAEDTAMYYCAADHLAYDCYSGATSVFRYWGQGTLVTVSSGGGGSGGGGSGGGGSEVQLVESGGGLVQPGGSLRLSCAISEFTYKNTCVGWFRQAPGKGREGVAAIDSDGNTNYVDSVKGRFTISQDNSKNTVYLQMNSLRAEDTAMYYCAAGAYCGRLLLWIGNYAYWGQGTLVTVSS					0.19 nM	6.1e-05 s⁻¹	320000 M⁻¹ s⁻¹
AS79236VH6 VHH-His recombinant antibody (VHH, the result sentence still names the hIgG1Fc form) VHH: EVQLVESGGGLVQPGGSLRLSCAVSGYTYSSYCMAWFRQAPGKGLEGVASIDAGGRTTYVDSVKGRFTISKDNAKNSLYLQMNSLRAEDTAMYYCAVDVRTRCGGTWDGEAVYFPYWGQGTLVTVSS	no binding (tested: about 300 nM)						
AS72669VH6 anti-GPC2 VHH-His protein (VHH) VHH: QVQLVESGGGVVQPGGSLRLSCAASRFTYSSYCMGWIRQAPGKGREGVAIFYTGGGRTYYADSVKGRFTISQDNSKNTLYLQMNSLRAEDTAVYYCVAGFYCSGGYWEGDFGYWGQGTLVTVSS		~5 nM	~2 nM	~4 nM			
AS72669VH6-hIgG1Fc (Fc fusion, also called anti-GPC2 VHH-hIgG1Fc; not shown: human IgG1 Fc fragment (hIgG1Fc)) QVQLVESGGGVVQPGGSLRLSCAASRFTYSSYCMGWIRQAPGKGREGVAIFYTGGGRTYYADSVKGRFTISQDNSKNTLYLQMNSLRAEDTAVYYCVAGFYCSGGYWEGDFGYWGQGTLVTVSS					0.15 nM	7.7e-05 s⁻¹	520000 M⁻¹ s⁻¹
AS70950VH6 anti-GPC2 VHH-His protein (VHH) VHH: EVQLVESGGGLVQPGGSLRLSCAISEFTYKNTCVGWFRQAPGKGREGVAAIDSDGNTNYVDSVKGRFTISQDNSKNTVYLQMNSLRAEDTAMYYCAAGAYCGRLLLWIGNYAYWGQGTLVTVSS	no binding (tested: about 300 nM)	~5 nM	~3 nM	~2 nM			
